Assay results reported in publication PMC6555819, “Comprehensive study of nuclear receptor DNA binding provides a revised framework for understanding receptor specificity”.

B1: NRC3_wobSeed2_DR0_A20C_o1 (dsDNA)
DNA 1: GCCCTAGTTGGTCAAGGTCCCACACGCTATAGGTACGCGATTGACAGCGTAGAATGAAGG
DNA 2: CCTTCATTCTACGCTGTCAATCGCGTACCTATAGCGTGTGGGACCTTGACCAACTAGGGC
B2: NRC3_wobSeed133_DR5_C13A_o1 (dsDNA)
DNA 1: GCCGTCCAAGGTAAATGCTAGGTCAGTGAAAGCATTGCGATTGACAGCGTAGAATGAAGG
DNA 2: CCTTCATTCTACGCTGTCAATCGCAATGCTTTCACTGACCTAGCATTTACCTTGGACGGC
B3: NRC3_wobSeed133_DR5_T12G_o1 (dsDNA)
DNA 1: GCCGTCCAAGGGCAATGCTAGGTCAGTGAAAGCATTGCGATTGACAGCGTAGAATGAAGG
DNA 2: CCTTCATTCTACGCTGTCAATCGCAATGCTTTCACTGACCTAGCATTGCCCTTGGACGGC
B4: NRC3_random_hg19_86_o1 (dsDNA)
DNA 1: GCAAACAAGGAGGAGAGGTGTTCTGGAGAACTGCTTGCGATTGACAGCGTAGAATGAAGG
DNA 2: CCTTCATTCTACGCTGTCAATCGCAAGCAGTTCTCCAGAACACCTCTCCTCCTTGTTTGC
B5: NRC3_random_hg19_61_o1 (dsDNA)
DNA 1: GCGCAGAGGTTGCAATGAGCCAAGATTGTACCACTGGCGATTGACAGCGTAGAATGAAGG
DNA 2: CCTTCATTCTACGCTGTCAATCGCCAGTGGTACAATCTTGGCTCATTGCAACCTCTGCGC
B6: NRC3_wobSeed50_DR2_G18A_o1 (dsDNA)
DNA 1: GCCCTAGTTGGTCAGGAAGTCACACACCGGATATGAGCGATTGACAGCGTAGAATGAAGG
DNA 2: CCTTCATTCTACGCTGTCAATCGCTCATATCCGGTGTGTGACTTCCTGACCAACTAGGGC
B7: NRC3_wobSeed113_DR4_G20A_o1 (dsDNA)
DNA 1: GCATATGTAGGTTAGCTGGAGTCATTCAGACTAGGCGCGATTGACAGCGTAGAATGAAGG
DNA 2: CCTTCATTCTACGCTGTCAATCGCGCCTAGTCTGAATGACTCCAGCTAACCTACATATGC
B8: NRC3_random_hg19_122_o1 (dsDNA)
DNA 1: GCTGGCAATGGCTGGACCACTCCAAGAACTGTGTGGGCGATTGACAGCGTAGAATGAAGG
DNA 2: CCTTCATTCTACGCTGTCAATCGCCCACACAGTTCTTGGAGTGGTCCAGCCATTGCCAGC
B9: NRC3_wobSeed53_DR2_C13A_o1 (dsDNA)
DNA 1: GCCCTTACGGGTAACGAGGTTATAGCACGACGAGCGGCGATTGACAGCGTAGAATGAAGG
DNA 2: CCTTCATTCTACGCTGTCAATCGCCGCTCGTCGTGCTATAACCTCGTTACCCGTAAGGGC
B10: NRC3_random_hg19_97_o1 (dsDNA)
DNA 1: GCAAAGGCCTGAGAACCAGGACCTCCAGTGTCCTCAGCGATTGACAGCGTAGAATGAAGG
DNA 2: CCTTCATTCTACGCTGTCAATCGCTGAGGACACTGGAGGTCCTGGTTCTCAGGCCTTTGC
B11: NRC3_random_hg19_405_o1 (dsDNA)
DNA 1: GCAGCGCACCAGCATGGCACATGTATACATATGTAAGCGATTGACAGCGTAGAATGAAGG
DNA 2: CCTTCATTCTACGCTGTCAATCGCTTACATATGTATACATGTGCCATGCTGGTGCGCTGC
B12: NRC3_random_hg19_182_o1 (dsDNA)
DNA 1: GCGCAGGAGACTCACTTGTGCATGCAGGGTTGAGGCGCGATTGACAGCGTAGAATGAAGG
DNA 2: CCTTCATTCTACGCTGTCAATCGCGCCTCAACCCTGCATGCACAAGTGAGTCTCCTGCGC
B13: NRC3_random_hg19_39_o1 (dsDNA)
DNA 1: GCGGGCAACTCGTTCGACTCAGGGAGCTATGGGTAGGCGATTGACAGCGTAGAATGAAGG
DNA 2: CCTTCATTCTACGCTGTCAATCGCCTACCCATAGCTCCCTGAGTCGAACGAGTTGCCCGC
B14: NRC3_wobSeed100_DR4_C23G_o1 (dsDNA)
DNA 1: GCCCTACTGGGCCACGAAAGGTGATTGATTCAGTGAGCGATTGACAGCGTAGAATGAAGG
DNA 2: CCTTCATTCTACGCTGTCAATCGCTCACTGAATCAATCACCTTTCGTGGCCCAGTAGGGC
B15: NRC3_wobSeed116_DR4_C15G_o1 (dsDNA)
DNA 1: GCAGAATGAGGTTAGCAAAGATCAGGGAAACGCTTGGCGATTGACAGCGTAGAATGAAGG
DNA 2: CCTTCATTCTACGCTGTCAATCGCCAAGCGTTTCCCTGATCTTTGCTAACCTCATTCTGC
B16: NRC3_wobSeed70_DR2_o1 (dsDNA)
DNA 1: GCGTACCAAGGTGAATAGGTCGTTGATGAGTAGGCGGCGATTGACAGCGTAGAATGAAGG
DNA 2: CCTTCATTCTACGCTGTCAATCGCCGCCTACTCATCAACGACCTATTCACCTTGGTACGC
B17: NRC3_wobSeed42_DR1_G11A_o1 (dsDNA)
DNA 1: GCTATACAGGATCAAAGGCCAGAGTACGAATGTCGAGCGATTGACAGCGTAGAATGAAGG
DNA 2: CCTTCATTCTACGCTGTCAATCGCTCGACATTCGTACTCTGGCCTTTGATCCTGTATAGC
B18: NRC3_wobSeed29_DR1_G17A_o1 (dsDNA)
DNA 1: GCGCTTACGGGTCAAAAGTTATAGCATGAATAGAATGCGATTGACAGCGTAGAATGAAGG
DNA 2: CCTTCATTCTACGCTGTCAATCGCATTCTATTCATGCTATAACTTTTGACCCGTAAGCGC
B19: NRC3_wobSeed21_DR0_C13A_o1 (dsDNA)
DNA 1: GCCGTCAAAGTTAAAGGTAACGTAACAGAAAGCAGCGCGATTGACAGCGTAGAATGAAGG
DNA 2: CCTTCATTCTACGCTGTCAATCGCGCTGCTTTCTGTTACGTTACCTTTAACTTTGACGGC
B20: NRC3_wobSeed88_DR3_C21T_o1 (dsDNA)
DNA 1: GCTAGCCTAGGTCATGCGGGTCAGTATAGTGTCGGCGCGATTGACAGCGTAGAATGAAGG
DNA 2: CCTTCATTCTACGCTGTCAATCGCGCCGACACTATACTGACCCGCATGACCTAGGCTAGC
B21: NRC3_random_hg19_71_o1 (dsDNA)
DNA 1: GCCATGTCACCTCCCTGAGGTGCAGTTTGCTTCAAGGCGATTGACAGCGTAGAATGAAGG
DNA 2: CCTTCATTCTACGCTGTCAATCGCCTTGAAGCAAACTGCACCTCAGGGAGGTGACATGGC
B22: NRC3_random_hg19_472_o1 (dsDNA)
DNA 1: GCTGATGGGCTTCAAGTTGCTAACCCAGGAAATGGAGCGATTGACAGCGTAGAATGAAGG
DNA 2: CCTTCATTCTACGCTGTCAATCGCTCCATTTCCTGGGTTAGCAACTTGAAGCCCATCAGC
B23: NRC3_random_hg19_193_o1 (dsDNA)
DNA 1: GCTGGAAGATGAAGAAGAACTATTGCTCGATGGAGAGCGATTGACAGCGTAGAATGAAGG
DNA 2: CCTTCATTCTACGCTGTCAATCGCTCTCCATCGAGCAATAGTTCTTCTTCATCTTCCAGC
B24: NRC3_random_hg19_477_o1 (dsDNA)
DNA 1: GCAACAAACTTCCTTGCTCTAGTTCATCAGCAATGAGCGATTGACAGCGTAGAATGAAGG
DNA 2: CCTTCATTCTACGCTGTCAATCGCTCATTGCTGATGAACTAGAGCAAGGAAGTTTGTTGC
B25: NRC3_wobSeed136_DR5_A9C_o1 (dsDNA)
DNA 1: GCTAGCCTCGGTCATTCAGGGGCCAGTATAGAAAGCGCGATTGACAGCGTAGAATGAAGG
DNA 2: CCTTCATTCTACGCTGTCAATCGCGCTTTCTATACTGGCCCCTGAATGACCGAGGCTAGC
B26: NRC3_wobSeed27_DR1_C20G_o1 (dsDNA)
DNA 1: GCACTCGGAGGACAAAGGTGAGAGCTACGCCAGTGAGCGATTGACAGCGTAGAATGAAGG
DNA 2: CCTTCATTCTACGCTGTCAATCGCTCACTGGCGTAGCTCTCACCTTTGTCCTCCGAGTGC
B27: NRC3_wobSeed27_DR1_C20A_o1 (dsDNA)
DNA 1: GCACTCGGAGGACAAAGGTAAGAGCTACGCCAGTGAGCGATTGACAGCGTAGAATGAAGG
DNA 2: CCTTCATTCTACGCTGTCAATCGCTCACTGGCGTAGCTCTTACCTTTGTCCTCCGAGTGC
B28: NRC3_random_hg19_65_o1 (dsDNA)
DNA 1: GCATGGTGATGAAAGCAAAGGAGTAATGTTTCTGTGGCGATTGACAGCGTAGAATGAAGG
DNA 2: CCTTCATTCTACGCTGTCAATCGCCACAGAAACATTACTCCTTTGCTTTCATCACCATGC
B29: NRC3_random_hg19_201_o1 (dsDNA)
DNA 1: GCCAAGGCTACCAAAGCAGTTTCTGGGCATGCTGAGGCGATTGACAGCGTAGAATGAAGG
DNA 2: CCTTCATTCTACGCTGTCAATCGCCTCAGCATGCCCAGAAACTGCTTTGGTAGCCTTGGC
B30: NRC3_random_hg19_46_o1 (dsDNA)
DNA 1: GCAGTAATGCCAATGTCATGATGTGGTCCAGGAATGGCGATTGACAGCGTAGAATGAAGG
DNA 2: CCTTCATTCTACGCTGTCAATCGCCATTCCTGGACCACATCATGACATTGGCATTACTGC
B31: NRC3_wobSeed114_DR4_C13G_o1 (dsDNA)
DNA 1: GCAATACAGGGTGATCGTAGGCCAGAGTACGCACAGGCGATTGACAGCGTAGAATGAAGG
DNA 2: CCTTCATTCTACGCTGTCAATCGCCTGTGCGTACTCTGGCCTACGATCACCCTGTATTGC

What was measured:
Test in all cases: no ligand; PBM; 270 nM : 90 nM RXRa; PBS pH 7.4, 2% milk, 0.02% Triton X-100, 1 mM DTT, BSA, 0.4 mg/ml salmon testes DNA
[1] = biological target: LXRb:RXRa (Homo sapiens, UniProt P55055;P19793 full;full); conditions: tags: His kept;His cleaved; copies: 1;1; label: surface-attached array probe
In short: (§1)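 Custom Agilent 4×180K protein-binding microarrays carried double-stranded probes, each with a 34-nt variable region. These regions held direct-repeat seeds, single-nucleotide variants, half-site ablations and random human genomic background sequences. Ligand-free nuclear receptor dimers were incubated on the arrays for 1 h, antibodies against each partner (one per run) detected binding, and scanned fluorescence was regression-normalized. Binding z-scores take the random background probes as reference.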

[2] = biological target: RARg:RXRa (Homo sapiens, UniProt P13631;P19793 full;full); conditions: tags: His kept;His cleaved; copies: 1;1; label: surface-attached array probe
In short: as §1

[3] = biological target: PPARa:RXRa (Homo sapiens, UniProt Q07869;P19793 full;full); conditions: tags: GST kept;His cleaved; copies: 1;1; label: surface-attached array probe
In short: as §1

LXRb:RXRa, sequence (P55055 whole entry, chain 1 of 2): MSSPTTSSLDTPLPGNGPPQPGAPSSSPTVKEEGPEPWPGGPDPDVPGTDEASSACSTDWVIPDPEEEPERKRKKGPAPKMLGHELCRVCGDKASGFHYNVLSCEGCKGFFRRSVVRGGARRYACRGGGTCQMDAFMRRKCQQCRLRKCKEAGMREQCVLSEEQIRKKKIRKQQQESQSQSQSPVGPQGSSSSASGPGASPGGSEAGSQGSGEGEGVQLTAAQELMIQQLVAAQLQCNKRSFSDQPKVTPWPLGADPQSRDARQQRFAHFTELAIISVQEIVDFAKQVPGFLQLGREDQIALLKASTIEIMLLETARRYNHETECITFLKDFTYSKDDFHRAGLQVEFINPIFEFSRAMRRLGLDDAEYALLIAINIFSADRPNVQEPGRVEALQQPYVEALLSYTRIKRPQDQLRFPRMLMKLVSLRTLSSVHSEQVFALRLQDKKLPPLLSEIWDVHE
LXRb:RXRa, sequence (P19793 whole entry, chain 2 of 2): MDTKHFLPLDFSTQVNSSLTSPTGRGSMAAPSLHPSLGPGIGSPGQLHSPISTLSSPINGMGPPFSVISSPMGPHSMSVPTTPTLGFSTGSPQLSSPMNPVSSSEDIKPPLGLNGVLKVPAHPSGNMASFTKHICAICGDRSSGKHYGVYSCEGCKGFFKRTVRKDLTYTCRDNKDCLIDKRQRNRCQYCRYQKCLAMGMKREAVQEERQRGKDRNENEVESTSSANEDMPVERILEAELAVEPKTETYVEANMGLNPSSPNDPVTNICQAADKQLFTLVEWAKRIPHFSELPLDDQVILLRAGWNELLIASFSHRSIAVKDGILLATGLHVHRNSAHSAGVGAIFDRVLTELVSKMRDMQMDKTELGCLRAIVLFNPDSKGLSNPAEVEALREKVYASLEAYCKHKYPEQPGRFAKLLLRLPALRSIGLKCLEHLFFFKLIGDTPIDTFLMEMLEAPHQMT
PPARa:RXRa, sequence (Q07869 whole entry, chain 1 of 2): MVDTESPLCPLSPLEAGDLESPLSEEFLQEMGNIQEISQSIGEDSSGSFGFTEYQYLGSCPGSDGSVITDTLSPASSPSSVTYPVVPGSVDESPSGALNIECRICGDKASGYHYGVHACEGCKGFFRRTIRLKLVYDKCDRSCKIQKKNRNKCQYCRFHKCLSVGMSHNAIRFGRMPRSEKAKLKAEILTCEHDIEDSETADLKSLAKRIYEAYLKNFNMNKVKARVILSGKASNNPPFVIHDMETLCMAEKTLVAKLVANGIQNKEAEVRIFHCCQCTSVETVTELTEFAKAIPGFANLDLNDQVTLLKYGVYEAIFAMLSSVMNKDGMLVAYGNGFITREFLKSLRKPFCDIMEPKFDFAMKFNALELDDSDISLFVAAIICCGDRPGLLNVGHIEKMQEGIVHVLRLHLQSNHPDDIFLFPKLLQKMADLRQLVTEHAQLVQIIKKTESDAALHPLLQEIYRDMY
PPARa:RXRa, sequence (P19793 whole entry, chain 2 of 2): as the sequence (P19793 whole entry, chain 2 of 2) above
RARg:RXRa, sequence (P13631 whole entry, chain 1 of 2): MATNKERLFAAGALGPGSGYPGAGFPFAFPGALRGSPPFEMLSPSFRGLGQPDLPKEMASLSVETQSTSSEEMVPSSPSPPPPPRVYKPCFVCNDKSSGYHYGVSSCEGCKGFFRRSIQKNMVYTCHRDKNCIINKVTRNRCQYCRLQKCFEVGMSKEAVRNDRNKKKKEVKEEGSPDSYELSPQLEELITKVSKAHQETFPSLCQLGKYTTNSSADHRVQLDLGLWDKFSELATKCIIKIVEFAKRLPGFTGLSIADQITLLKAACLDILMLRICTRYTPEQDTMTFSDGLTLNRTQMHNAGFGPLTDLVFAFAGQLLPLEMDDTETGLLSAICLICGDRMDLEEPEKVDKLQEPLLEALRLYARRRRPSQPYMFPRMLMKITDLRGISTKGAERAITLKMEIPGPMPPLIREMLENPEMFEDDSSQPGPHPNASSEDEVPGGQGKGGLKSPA
RARg:RXRa, sequence (P19793 whole entry, chain 2 of 2): as the sequence (P19793 whole entry, chain 2 of 2) above

Row | Binder | binding signal [1] | binding signal [2] | binding signal [3]
1 | B1 | 0.48 PBM z-score against 500 random probes |  | 
2 | B2 | 0.46 PBM z-score against 500 random probes |  | 
3 | B3 | 0.44 PBM z-score against 500 random probes |  | 
4 | B4 | 0.18 PBM z-score against 500 random probes |  | 
5 | B5 | -0.15 PBM z-score against 500 random probes |  | 
6 | B6 | 0.38 PBM z-score against 500 random probes |  | 
7 | B7 | 0.16 PBM z-score against 500 random probes |  | 
8 | B8 | -0.85 PBM z-score against 500 random probes |  | 
9 | B9 | 0.41 PBM z-score against 500 random probes |  | 
10 | B10 | -0.68 PBM z-score against 500 random probes |  | 
11 | B11 | -0.44 PBM z-score against 500 random probes |  | 
12 | B12 | -1.08 PBM z-score against 500 random probes |  | 
13 | B13 | -0.61 PBM z-score against 500 random probes |  | 
14 | B14 | -0.2 PBM z-score against 500 random probes |  | 
15 | B15 | 0.41 PBM z-score against 500 random probes |  | 
16 | B16 | 0.5 PBM z-score against 500 random probes |  | 

Row | Binder | binding signal [1] | binding signal [2] | binding signal [3]
17 | B17 | 0.47 PBM z-score against 500 random probes |  | 
18 | B18 | 3.65 PBM z-score against 500 random probes | 4.11 PBM z-score against 500 random probes | 
19 | B19 | 0.26 PBM z-score against 500 random probes |  | 
20 | B20 | 3 PBM z-score against 500 random probes |  | 
21 | B21 | 0.34 PBM z-score against 500 random probes |  | 
22 | B22 | -0.26 PBM z-score against 500 random probes |  | 
23 | B23 | -0.54 PBM z-score against 500 random probes |  | 
24 | B24 | 0.49 PBM z-score against 500 random probes |  | 
25 | B25 | 0.42 PBM z-score against 500 random probes |  | 
26 | B26 | 0.32 PBM z-score against 500 random probes |  | 
27 | B27 | -0.49 PBM z-score against 500 random probes |  | 
28 | B28 | 0.22 PBM z-score against 500 random probes |  | 
29 | B29 | -0.95 PBM z-score against 500 random probes |  | -0.55 PBM z-score against 500 random probes
30 | B30 | -0.76 PBM z-score against 500 random probes |  | 
31 | B31 | 0.1 PBM z-score against 500 random probes |  | 
